Source: paper PMC10700544
Values joined by “and” are separate entries in the source; they are usually repeats but may differ in a detail not shown here. Equal values may be shown once.

Assays:
[1] = target: His-tagged RNase J K649A (pET28a+) (Helicobacter pylori) (UniProt P56185); test: AUC; sedimentation velocity of His-tagged purified proteins, alone or mixed; 25 mM Tris-HCl pH 8, 300 mM NaCl, 0.5 mM TCEP; 20 °C; 230 nm; c(s) analysis with Sedfit
[2] = target: full-length RNase J (H. pylori strain B128) with C-terminal 8xHis-tag, from pExp-xMBP-CHis (Helicobacter pylori strain B128) (UniProt P56185); test: mass photometry; Refeyn TwoMP; 20 mM sodium phosphate pH 7.2, 300 mM NaCl; final concentration of 50 nM
[3] = target: full-length RNase J (H. pylori strain B128) with C-terminal 8xHis-tag, from pExp-xMBP-CHis (Helicobacter pylori strain B128) (UniProt P56185); test: cryo-EM structure; mixture of RNase J (1 µM) and RhpA (2 µM) in 20 mM sodium phosphate pH 7.2, 500 mM NaCl, 0.5 mM TCEP; Quantifoil R1.2/1.3 grids, 200 kV Talos Arctica
[4] = target: His-tagged RNase J K649R (pET28a+) (Helicobacter pylori) (UniProt P56185); test: AUC; sedimentation velocity of His-tagged purified proteins, alone or mixed; 25 mM Tris-HCl pH 8, 300 mM NaCl, 0.5 mM TCEP; 20 °C; 230 nm; c(s) analysis with Sedfit
[5] = target: RhpA with C-terminal Strep-tag, from pExp-MBP (Helicobacter pylori) (UniProt O25029); test: mass photometry; Refeyn TwoMP; 20 mM sodium phosphate pH 7.2, 300 mM NaCl; final concentration of 50 nM
[6] = target: His-tagged RhpA (pET28a+) (Helicobacter pylori) (UniProt O25029); test: AUC; sedimentation velocity of His-tagged purified proteins, alone or mixed; 25 mM Tris-HCl pH 8, 300 mM NaCl, 0.5 mM TCEP; 20 °C; 230 nm; c(s) analysis with Sedfit
[7] = target: His-tagged RNase J K649A (pET28a+) (Helicobacter pylori) (UniProt P56185)
[8] = target: His-tagged RNase J K649Q (pET28a+) (Helicobacter pylori) (UniProt P56185); test: AUC; sedimentation velocity of His-tagged purified proteins, alone or mixed; 25 mM Tris-HCl pH 8, 300 mM NaCl, 0.5 mM TCEP; 20 °C; 230 nm; c(s) analysis with Sedfit
[9] = target: His-tagged RNase J wild type (pET28a+) (Helicobacter pylori) (UniProt P56185); test: as above

## His-tagged RNase J K649A (pET28a+) (from UniProt P56185 1-689) (enzyme)
[1]
  stoichiometry N: 4

## full-length RNase J (H. pylori strain B128) with C-terminal 8xHis-tag, from pExp-xMBP-CHis (from UniProt P56185 1-689) (enzyme)
[2]
  stoichiometry N: 4
[3]
  stoichiometry N: 4

## His-tagged RNase J K649R (pET28a+) (from UniProt P56185 1-689) (enzyme)
[4]
  stoichiometry N: 4 and 2

## RhpA with C-terminal Strep-tag, from pExp-MBP (from UniProt O25029 1-492) (enzyme)
[5]
  stoichiometry N: 2

## His-tagged RhpA (pET28a+) (from UniProt O25029 1-492) (enzyme)
[6]
  stoichiometry N: 2
[7]
  half-life of the structured RNA substrate with the complex between RhpA and the RNase J K649A variant (value of the text, differs from the table): 6.7 min

## His-tagged RNase J K649Q (pET28a+) (from UniProt P56185 1-689) (enzyme)
[8]
  stoichiometry N: 4 and 2

## His-tagged RNase J wild type (pET28a+) (from UniProt P56185 1-689) (enzyme)
[9]
  stoichiometry N: 2 and 4
